The source of these data is US6682898B2, “High-throughput screening assays for modulators of STAT4 activity” (Tularik Inc., priority 1998, dated 2004).

One may read the IC50 as the point on the concentration scale where inhibition reaches its midpoint.

The target in assay [1] is T1, STAT6 (Homo sapiens, UniProt P42226).
T1 sequence (P42226 1-847): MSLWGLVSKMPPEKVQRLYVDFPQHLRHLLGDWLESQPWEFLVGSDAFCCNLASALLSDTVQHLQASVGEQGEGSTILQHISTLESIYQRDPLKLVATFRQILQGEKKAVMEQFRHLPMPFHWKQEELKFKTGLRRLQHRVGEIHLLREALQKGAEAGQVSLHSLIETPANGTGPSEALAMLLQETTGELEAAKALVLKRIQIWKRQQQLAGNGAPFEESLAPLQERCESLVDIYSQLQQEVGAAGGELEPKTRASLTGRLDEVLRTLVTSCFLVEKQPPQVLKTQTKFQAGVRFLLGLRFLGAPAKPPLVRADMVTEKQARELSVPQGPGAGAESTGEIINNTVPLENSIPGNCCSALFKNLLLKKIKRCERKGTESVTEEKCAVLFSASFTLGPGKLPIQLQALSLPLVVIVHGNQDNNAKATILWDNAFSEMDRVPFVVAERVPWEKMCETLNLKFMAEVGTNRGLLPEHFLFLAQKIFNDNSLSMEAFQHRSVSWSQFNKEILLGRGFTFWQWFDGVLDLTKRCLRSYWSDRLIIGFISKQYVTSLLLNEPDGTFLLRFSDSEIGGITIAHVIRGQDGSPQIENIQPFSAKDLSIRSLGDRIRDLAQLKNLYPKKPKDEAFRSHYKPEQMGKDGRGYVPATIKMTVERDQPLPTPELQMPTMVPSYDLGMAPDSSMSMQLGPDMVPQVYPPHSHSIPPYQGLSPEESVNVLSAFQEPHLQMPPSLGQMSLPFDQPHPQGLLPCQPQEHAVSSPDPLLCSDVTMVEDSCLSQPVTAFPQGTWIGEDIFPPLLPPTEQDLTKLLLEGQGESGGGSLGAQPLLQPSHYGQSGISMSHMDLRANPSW
Nature of the assay: STAT6 binding to phosphotyrosine receptor peptides (IC50 / binding affinity).

For assay [2], the target named is T2, STAT6 (UniProt P42226 1-847, limits assumed).
T2 construct: also called STAT6 polypeptide
T2 sequence (looked up): T1 sequence (P42226 1-847)
Nature of the assay: binding affinity of the phosphorylated receptor peptide for STAT6; method not stated at the table (paragraph 32 speaks of IC50).

For a further assay, the target named is T3, STAT1 (Homo sapiens, UniProt P42224).
T3 sequence (P42224 1-750): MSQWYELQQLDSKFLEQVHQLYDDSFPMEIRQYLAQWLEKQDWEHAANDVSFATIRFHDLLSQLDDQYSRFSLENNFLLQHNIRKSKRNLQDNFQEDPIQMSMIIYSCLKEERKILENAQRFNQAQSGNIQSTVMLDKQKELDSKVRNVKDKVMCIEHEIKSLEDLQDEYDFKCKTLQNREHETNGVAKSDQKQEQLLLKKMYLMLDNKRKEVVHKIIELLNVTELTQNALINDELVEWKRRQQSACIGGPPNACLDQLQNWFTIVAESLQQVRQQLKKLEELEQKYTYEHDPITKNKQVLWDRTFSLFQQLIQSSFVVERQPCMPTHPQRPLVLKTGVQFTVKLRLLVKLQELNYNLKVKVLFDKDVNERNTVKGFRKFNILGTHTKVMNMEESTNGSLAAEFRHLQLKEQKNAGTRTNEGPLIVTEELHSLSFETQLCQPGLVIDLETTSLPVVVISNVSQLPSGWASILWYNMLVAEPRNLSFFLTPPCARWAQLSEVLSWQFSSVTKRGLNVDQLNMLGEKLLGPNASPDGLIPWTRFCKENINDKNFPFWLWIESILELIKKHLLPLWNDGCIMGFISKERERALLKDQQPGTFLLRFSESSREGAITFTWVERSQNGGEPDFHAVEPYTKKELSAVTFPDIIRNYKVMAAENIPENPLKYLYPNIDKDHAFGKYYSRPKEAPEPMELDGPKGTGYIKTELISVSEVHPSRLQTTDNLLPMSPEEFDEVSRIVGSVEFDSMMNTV
Nature of the assay: Chemiluminescence binding assay, signal to noise, STAT1. Set-up: key: high signal relative to background = + + + +. Here is the method: (§1) The assays of the invention can be conducted as an ELISA assay, using a 96-well microplate format or a larger format if desired. In one embodiment, a phosphotyrosine-containing receptor peptide is incubated with a protein which contains an SH2 domain (e.g., a STAT polypeptide) to provide opportunity for the SH2 domain containing protein to bind the peptide. The peptide is preferably bound to a tag, e.g., biotin, at the amino terminus of the peptide. There can be a spacer between the tag and the peptide. The solution is placed in wells of a 96-well microplate that are coated with a tag binder, e.g., streptavidin. Reduction of background is achieved by incubating, in a separate reaction, a primary antibody specific for the SH2 domain containing protein and a secondary antibody specific for the first antibody which is to bind to the SH2 domain containing protein. The secondary antibody has conjugated to it a substrate for detection. The antibodies bind and form a binding pair of antibodies Ab1 and Ab2. Ab1 remains available to bind the SH2 domain containing protein for which it is specific. Ab2 remains conjugated to a substrate for chemiluminescence detection later.
(§2) The solution containing binding pairs of primary and secondary antibodies bound together is then added to the microwells that already contain the bound streptavidin, biotinylated receptor peptide and an SH2 domain containing protein bound to the receptor peptide. […]
(§3) An alternate method for conducting the assay involves preincubating the SH2 domain containing protein with the primary antibody that is specific for the SH2 domain containing protein. […] After allowing time for the SH2-antibody complex to bind the biotinylated peptide bound to streptavidin, a second antibody specific for the first antibody is added, and the presence of the second antibody is detected as before, using a chemiluminescence reaction with either alkaline phosphatase detection or horse radish peroxidase detection. […]

Assay [3] deals with T4, STAT4 (Homo sapiens, UniProt Q14765).
T4 sequence (Q14765 1-748): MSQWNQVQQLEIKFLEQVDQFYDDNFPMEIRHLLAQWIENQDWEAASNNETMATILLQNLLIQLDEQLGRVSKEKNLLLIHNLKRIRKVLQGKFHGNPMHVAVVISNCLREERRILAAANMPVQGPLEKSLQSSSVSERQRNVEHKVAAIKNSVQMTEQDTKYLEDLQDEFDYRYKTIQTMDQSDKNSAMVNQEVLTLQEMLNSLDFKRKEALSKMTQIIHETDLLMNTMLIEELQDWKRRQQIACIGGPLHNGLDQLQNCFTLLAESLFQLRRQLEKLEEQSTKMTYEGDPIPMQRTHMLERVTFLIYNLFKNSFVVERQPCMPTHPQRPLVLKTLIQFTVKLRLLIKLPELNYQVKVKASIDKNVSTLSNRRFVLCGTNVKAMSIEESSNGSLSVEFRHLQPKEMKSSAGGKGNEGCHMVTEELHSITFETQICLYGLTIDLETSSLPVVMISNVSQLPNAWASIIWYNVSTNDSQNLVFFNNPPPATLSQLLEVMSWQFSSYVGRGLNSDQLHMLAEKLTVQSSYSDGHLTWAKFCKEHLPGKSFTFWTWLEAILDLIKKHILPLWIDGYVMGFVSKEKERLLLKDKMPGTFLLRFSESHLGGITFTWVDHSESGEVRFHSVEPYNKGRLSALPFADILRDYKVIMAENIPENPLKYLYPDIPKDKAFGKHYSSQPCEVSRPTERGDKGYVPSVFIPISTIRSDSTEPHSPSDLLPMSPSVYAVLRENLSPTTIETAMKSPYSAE
Put plainly: Chemiluminescence binding assay, signal to noise, STAT4. On the set-up: key: high signal relative to background = + + + +. Here is the method:
as §1, §2, §3

Assay [4] concerns the target T1, STAT6. Nature of the assay: Chemiluminescence binding assay, signal to noise, STAT6. The method, then:
as §1, §2, §3

For assay [5], the target named is T5, STAT4 (UniProt Q14765 1-748, limits assumed).
T5 construct: also called STAT4 polypeptide
T5 sequence (looked up): T4 sequence (Q14765 1-748)
Nature of the assay: binding affinity of the phosphorylated receptor peptide for STAT4; method not stated at the table (paragraph 32 speaks of IC50).

Non-standard residues stand in square brackets, D forms with d. Residues, ends and D or L forms follow the SMILES beside them. No end group written: not given here. pY = N[C@@H](Cc1ccc(OP(=O)(O)O)cc1)C(=O)O

In the case of `CC(=O)N[C@@H](Cc1ccc(OP(=O)(O)O)cc1)C(=O)N[C@H](C(=O)N1CCC[C@H]1C(=O)N[C@@H](Cc1c[nH]c2ccccc12)C(=O)N[C@@H](CCC(N)=O)C(N)=O)C(C)C` [Ac-Y^PVPWQ-NH2] (HELM PEPTIDE1{[ac].[O=C([C@H](Cc1ccc(OP(=O)(O)O)cc1)N[*:1])[*:2]].V.P.W.Q.[am]}$$$$V2.0), at STAT6 [1], the IC50 was 1500 nM.
In turn, Ac-Y^PVPW-NH2 (peptide) registered a BINDING AFFINITY with STAT6 [2] of 1.2 µM.
For the molecule “GY^PDMPHVL: phosphotyrosine receptor peptide for STAT4 (also binds STAT1) (G[pY]DMPHVL)”, the “signal relative to background, STAT1” value is given as “+ + + +” with STAT1 (Ab1/Ab2 preincubation), “+ + + +” in the assay with STAT1 (STAT1/Ab preincubation) and “+ +” in the assay with STAT1 (Standard assay). In addition, the figures for the “signal relative to background, STAT4” value with STAT4 [3] (Ab1/Ab2 preincubation), in the assay with STAT4 [3] (STAT4/Ab preincubation) and with STAT4 [3] (Standard assay) were “+ + + +”, “+ + + +” and “+ +”, respectively.
As to Ac-Y^PKPF-NH2 (peptide), in the assay with STAT6 [2], the BINDING AFFINITY came to 22 µM.
For `CC(=O)N[C@@H](Cc1ccc(OP(=O)(O)O)cc1)C(=O)N[C@H](C(=O)N1CCC[C@H]1C(=O)N[C@@H](Cc1c[nH]c2ccccc12)C(N)=O)C(C)C` [Ac-Y^PVPW-NH2] (HELM PEPTIDE1{[ac].[O=C([C@H](Cc1ccc(OP(=O)(O)O)cc1)N[*:1])[*:2]].V.P.W.[am]}$$$$V2.0), at STAT6 [1], the IC50 amounted to 1200 nM.
`CC[C@H](C)[C@H](NC(=O)[C@H](CC(C)C)NC(=O)[C@H](CC(=O)O)NC(=O)[C@H](CCC(N)=O)NC(=O)[C@H](Cc1c[nH]c2ccccc12)NC(=O)[C@@H]1CCCN1C(=O)[C@@H](NC(=O)[C@H](Cc1ccc(OP(=O)(O)O)cc1)NC(=O)CNC(=O)[C@@H](N)CCC(=O)O)C(C)C)C(=O)O` [EGY^PVPWQDLI] (HELM PEPTIDE1{E.G.[O=C([C@H](Cc1ccc(OP(=O)(O)O)cc1)N[*:1])[*:2]].V.P.W.Q.D.L.I}$$$$V2.0) showed an IC50 on STAT6 [1] of 610 nM. The results for the “signal relative to background, STAT6” value on STAT6 [4] (Ab1/Ab2 preincubation), at STAT6 [4] (STAT4/Ab preincubation (so in the source)) and on STAT6 [4] (Standard assay) were “+ + + + +”, “+ + + + +” and “+ +”, respectively.
In turn, `CC(C)C[C@H](NC(=O)[C@@H](NC(=O)[C@H](Cc1c[nH]cn1)NC(=O)[C@@H]1CCCN1C(=O)[C@H](CCCCN)NC(=O)[C@H](CC(=O)O)NC(=O)[C@H](Cc1ccc(OP(=O)(O)O)cc1)NC(=O)CNC(=O)[C@H](Cc1ccccc1)NC(=O)[C@@H](N)CO)C(C)C)C(=O)O` [SFGY*DKPHVL, reference compound] (HELM PEPTIDE1{S.F.G.[O=C([C@H](Cc1ccc(OP(=O)(O)O)cc1)N[*:1])[*:2]].D.K.P.H.V.L}$$$$V2.0) gave an IC50 at STAT6 [1] greater than 100000 nM.
`CC(=O)N[C@@H](Cc1ccc(OP(=O)(O)O)cc1)C(=O)N[C@@H](CCCCN)C(=O)N1CCC[C@H]1C(=O)N[C@@H](Cc1ccccc1)C(N)=O` [Ac-Y^PKPF-NH2, reference compound] (HELM PEPTIDE1{[ac].[O=C([C@H](Cc1ccc(OP(=O)(O)O)cc1)N[*:1])[*:2]].K.P.F.[am]}$$$$V2.0) registered an IC50 on STAT6 [1] of 22000 nM.
In turn, Ac-Y^PVPWQ-NH2 (peptide) registered a BINDING AFFINITY in the assay with STAT6 [2] of 1.5 µM.

B1: SHEGY^PLPSNID (IL-12 receptor) (peptide)
peptide: SHEG[pY]LPSNID
notes: Native IL-12 receptor-derived phosphopeptide; also called IL-12 receptor peptide
In the case of B1, in the assay with STAT4 [5], the “BINDING AFFINITY” value was determined as 2.9 µM.
Turning to SHEG[pY]LPHNID [SHEGY^PLPHNID], in the assay with STAT4 [5], the “BINDING AFFINITY” value amounted to 0.7 µM.
For the molecule SHEG[pY]LPNNID [SHEGY^PLPNNID], the “BINDING AFFINITY” value in the assay with STAT4 [5] came to 0.51 µM.
Take SHEG[pY]LPQNID [SHEGY^PLPQNID]: the “BINDING AFFINITY” value with STAT4 [5] stood at 0.39 µM.
As for SHEG[pY]LPWNID [SHEGY^PLPWNID], in the assay with STAT4 [5], the “BINDING AFFINITY” value is 0.93 µM.
